The values that follow come from patent US20120021972A1 (CADILA HEALTHCARE, published 2012).

Starred links: 1 amine or outer side, 2 acyl side, 3 side chain; linkers in the order of their positions; H or OH if unused. Non-standard residues stand in square brackets, D forms with d. No end group written: not given here. *: point of attachment. AMCB = 2-amino-5-(4-chloro-2-methylphenyl)pentanoic acid, Cc1cc(Cl)ccc1CCC[C@H](N[*:1])C(=O)[*:2]; 2CF3,4F‑APPA = 2-amino-5-(4-fluoro-2-(trifluoromethyl)phenyl)pentanoic acid; Bip(2'-Et-4'-OMe) = CCc1cc(OC)ccc1-c1ccc(C[C@H](N)C(=O)O)cc1; Leu(5,5,5,5',5',5'-F6) = N[C@@H](CC(C(F)(F)F)C(F)(F)F)C(=O)O; 2Cl‑APPA = 2-amino-5-(2-chlorophenyl)pentanoic acid; 2F‑APPA = 2-amino-5-(2-fluorophenyl)pentanoic acid; αMePhe(2-F) = C[C@](N)(Cc1ccccc1F)C(=O)O; hhPhe = N[C@@H](CCCc1ccccc1)C(=O)O; aThr = C[C@H](O)[C@H](N)C(=O)O; CNB = not defined here; Aib = CC(C)(N)C(=O)O; Moc = COC(=O)*

The target in this assay is human GLP-1 receptor (human, UniProt P43220 24-463). The assay is described as follows: cell-based or functional assay.
Chain of human GLP-1 receptor (P43220 24-463): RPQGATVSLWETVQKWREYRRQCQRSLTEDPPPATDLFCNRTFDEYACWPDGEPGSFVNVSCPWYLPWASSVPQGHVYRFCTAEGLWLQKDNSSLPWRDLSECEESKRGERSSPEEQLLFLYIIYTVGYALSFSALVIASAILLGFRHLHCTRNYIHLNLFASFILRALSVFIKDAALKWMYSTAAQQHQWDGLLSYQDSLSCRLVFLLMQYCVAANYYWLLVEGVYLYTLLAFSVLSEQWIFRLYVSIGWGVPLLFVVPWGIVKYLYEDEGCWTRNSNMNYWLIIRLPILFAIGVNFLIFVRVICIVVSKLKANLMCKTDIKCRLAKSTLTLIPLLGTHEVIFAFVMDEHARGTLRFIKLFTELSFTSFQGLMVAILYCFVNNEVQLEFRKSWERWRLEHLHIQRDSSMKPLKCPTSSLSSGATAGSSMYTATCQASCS
For Ac-H[Aib]QG[aThr][αMePhe(2-F)][aThr]SD[Bip(2'-Et-4'-OMe)][hhPhe] (also: reduced (CH2) bond between 10 and 11) [Seq. ID. No. 185: CH3CO-H-Aib-QG-T(allo)-(α-Me-2F-Phe)-T(allo)-SD-Bip(OMe)-(CH2)-(APPA)], the “cAMP release, % activity, 1 nM” value was found to be 46%; the “cAMP release, % activity, 10 nM” value stood at 85%; the “cAMP release, % activity, 100 nM” value amounted to 90%; the “cAMP release, % activity, 1 µM” value amounted to 99%. For the same molecule, the “cAMP release, % activity, 10 µM” value amounted to 99%.
H[Aib][CNB]GTFTSD[Bip(2'-Et-4'-OMe)][2Cl‑APPA] (reading uncertain) [Seq. ID. No. 82: H-Aib-(CNB)-GTFTSD-Bip(OMe)-(2Cl-APPA)]: the “cAMP release, % activity, 1 nM” value came out at 78%; the “cAMP release, % activity, 10 nM” value came out at 99%; the “cAMP release, % activity, 100 nM” value was found to be 99%; the “cAMP release, % activity, 1 µM” value is 99%. The “cAMP release, % activity, 10 µM” value worked out at 99%.
Turning to H[Aib][CNB]G[aThr][αMePhe(2-F)][aThr]SD[Bip(2'-Et-4'-OMe)][hhPhe] (reading uncertain; also: reduced (CH2) bond between 10 and 11) [Seq. ID. No. 190: H-Aib-(CNB)-G-T(allo)-(α-Me-2F-Phe)-T(allo)-SD-Bip(OMe)-(CH2)-(APPA)], the “cAMP release, % activity, 1 nM” value turned out to be 41%; the “cAMP release, % activity, 10 nM” value worked out at 82%; the “cAMP release, % activity, 100 nM” value is 87%; the “cAMP release, % activity, 1 µM” value came out at 95%. Besides, the “cAMP release, % activity, 10 µM” value was determined as 98%.
Regarding HAQGTFTSD[Bip(2'-Et-4'-OMe)][AMCB] [Seq. ID. No. 16: HAQGTFTSD-Bip(OMe)-(AMCB)], the “cAMP release, % activity, 1 nM” value came to 99%; the “cAMP release, % activity, 10 nM” value amounted to 99%; the “cAMP release, % activity, 100 nM” value came out at 99%; the “cAMP release, % activity, 1 µM” value came out at 99%. For the same molecule, the “cAMP release, % activity, 10 µM” value is 99%.
Regarding Ac-H[Aib][Leu(5,5,5,5',5',5'-F6)]GT[αMePhe(2-F)]TSD[Bip(2'-Et-4'-OMe)][hhPhe] [Seq. ID. No. 210: CH3CO-H-Aib-(Hfl)-GT-(α-Me-2F-Phe)-TSD-Bip(OMe)-(APPA)], the “cAMP release, % activity, 1 nM” value came to 46%; the “cAMP release, % activity, 10 nM” value amounted to 85%; the “cAMP release, % activity, 100 nM” value is 90%; the “cAMP release, % activity, 1 µM” value came out at 99%. Further, the “cAMP release, % activity, 10 µM” value worked out at 99%.
Regarding Ac-H[Aib]QG[aThr][αMePhe(2-F)][aThr]SD[Bip(2'-Et-4'-OMe)][hhPhe] [Seq. ID. No. 101: CH3CO-H-Aib-QG-T(allo)-(α-Me-2F-Phe)-T(allo)-SD-Bip(OMe)-(APPA)], the “cAMP release, % activity, 1 nM” value came out at 41%; the “cAMP release, % activity, 10 nM” value was 82%; the “cAMP release, % activity, 100 nM” value was determined as 87%; the “cAMP release, % activity, 1 µM” value is 95%. Besides, the “cAMP release, % activity, 10 µM” value stood at 98%.
On the same counts, the results for H[Aib][CNB]GTFTSD[Bip(2'-Et-4'-OMe)][2CF3,4F‑APPA] (reading uncertain) [Seq. ID. No. 80: H-Aib-(CNB)-GTFTSD-Bip(OMe)-(2CF3, 4F-APPA)] are 66%, 97%, 99%, 99% and 99%.
For Moc-H[Aib]QGT[αMePhe(2-F)]TSD[Bip(2'-Et-4'-OMe)][2F‑APPA] (also: reduced (CH2) bonds between 9-10 and 10-11) [Seq. ID. No. 196: CH3OCO-H-Aib-QGT-(α-Me-2F-Phe)-TSD-(CH2)-BiP(OMe)-(CH2)-(2F-APPA)], in that order: 39%, 81%, 89%, 96% and 99%.
For H[Aib][CNB]G[aThr][αMePhe(2-F)][aThr]SD[Bip(2'-Et-4'-OMe)][2F‑APPA] (reading uncertain; also: thioamide bonds between residues 9-10 and 10-11) [Seq. ID. No. 180: H-Aib-(CNB)-G-T(allo)-(α-Me-2F-Phe)-T(allo)-SD-(C═S)-Bip(OMe)-(C═S)-(2F-APPA)], in that order: 40%, 81%, 89%, 96% and 99%.
As for H[Aib][Leu(5,5,5,5',5',5'-F6)]GT[αMePhe(2-F)][aThr]SD[Bip(2'-Et-4'-OMe)][2F‑APPA] [Seq. ID. No. 224: H-Aib-(Hfl)-GT-(α-Me-2F-Phe)-T(allo)-SD-Bip(OMe)-(2F-APPA)], the “cAMP release, % activity, 1 nM” value amounted to 99%; the “cAMP release, % activity, 10 nM” value came out at 99%; the “cAMP release, % activity, 100 nM” value came out at 99%; the “cAMP release, % activity, 1 µM” value is 99%. Also, the “cAMP release, % activity, 10 µM” value was determined as 99%.
As for H[Aib]QG[aThr][αMePhe(2-F)][aThr]SD[Bip(2'-Et-4'-OMe)][2F‑APPA] (also: reduced (CH2) bonds Z9-Z10 and Z10-Z11) [Seq. ID. No. 203: H-Aib-QG-T(allo)-(α-Me-2F-Phe)-T(allo)-SD-(CH2)-Bip(OMe)-(CH2)-(2F-APPA)], the “cAMP release, % activity, 1 nM” value is 86%; the “cAMP release, % activity, 10 nM” value amounted to 99%; the “cAMP release, % activity, 100 nM” value stood at 99%; the “cAMP release, % activity, 1 µM” value worked out at 99%. Also, the “cAMP release, % activity, 10 µM” value stood at 99%.
